Assay results published in paper PMC6422494.

Molecular target: GST-stx-1A (syntaxin-1A, GST fusion, immobilised on glutathione-sepharose beads) (UniProt P32851)
Test: pull-down; GST-stx-1A immobilised on glutathione-sepharose beads; one prey protein (5 µM), 20 hr, 4°C; 100 mM NaCl, 20 mM Tris, 1 mM DTT, 1 mM EDTA, 0.5% Triton X-100, pH 7.4; four washes; SDS-PAGE, Coomassie, molar retention ratio by densitometry

Sequence of UniProt P32851 (P32851 1-262): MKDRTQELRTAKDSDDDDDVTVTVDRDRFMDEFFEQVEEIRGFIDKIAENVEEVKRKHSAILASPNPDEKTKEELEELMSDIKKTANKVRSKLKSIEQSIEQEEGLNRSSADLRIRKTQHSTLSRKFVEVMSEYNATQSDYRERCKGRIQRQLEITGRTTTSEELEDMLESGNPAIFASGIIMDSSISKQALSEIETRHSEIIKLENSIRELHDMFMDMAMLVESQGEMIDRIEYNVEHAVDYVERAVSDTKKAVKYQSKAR

SN25 L^GGS (6xHis-tagged, recombinant; whole linker aa 83-141 substituted by a flexible G/S peptide) (from UniProt P60881-2 1-82; P60881-2 142-206) (natural protein)
molar ratio bound, percent lower than WT: 50 % lower
